Experimental data taken from patent publication US6566104.

Target: endogenous ErbB-4 of T47D human breast cancer cells (human) (UniProt Q15303)
Assay: cell-based or functional assay

UniProt Q15303, sequence (Q15303 26-1308, stated change not applied): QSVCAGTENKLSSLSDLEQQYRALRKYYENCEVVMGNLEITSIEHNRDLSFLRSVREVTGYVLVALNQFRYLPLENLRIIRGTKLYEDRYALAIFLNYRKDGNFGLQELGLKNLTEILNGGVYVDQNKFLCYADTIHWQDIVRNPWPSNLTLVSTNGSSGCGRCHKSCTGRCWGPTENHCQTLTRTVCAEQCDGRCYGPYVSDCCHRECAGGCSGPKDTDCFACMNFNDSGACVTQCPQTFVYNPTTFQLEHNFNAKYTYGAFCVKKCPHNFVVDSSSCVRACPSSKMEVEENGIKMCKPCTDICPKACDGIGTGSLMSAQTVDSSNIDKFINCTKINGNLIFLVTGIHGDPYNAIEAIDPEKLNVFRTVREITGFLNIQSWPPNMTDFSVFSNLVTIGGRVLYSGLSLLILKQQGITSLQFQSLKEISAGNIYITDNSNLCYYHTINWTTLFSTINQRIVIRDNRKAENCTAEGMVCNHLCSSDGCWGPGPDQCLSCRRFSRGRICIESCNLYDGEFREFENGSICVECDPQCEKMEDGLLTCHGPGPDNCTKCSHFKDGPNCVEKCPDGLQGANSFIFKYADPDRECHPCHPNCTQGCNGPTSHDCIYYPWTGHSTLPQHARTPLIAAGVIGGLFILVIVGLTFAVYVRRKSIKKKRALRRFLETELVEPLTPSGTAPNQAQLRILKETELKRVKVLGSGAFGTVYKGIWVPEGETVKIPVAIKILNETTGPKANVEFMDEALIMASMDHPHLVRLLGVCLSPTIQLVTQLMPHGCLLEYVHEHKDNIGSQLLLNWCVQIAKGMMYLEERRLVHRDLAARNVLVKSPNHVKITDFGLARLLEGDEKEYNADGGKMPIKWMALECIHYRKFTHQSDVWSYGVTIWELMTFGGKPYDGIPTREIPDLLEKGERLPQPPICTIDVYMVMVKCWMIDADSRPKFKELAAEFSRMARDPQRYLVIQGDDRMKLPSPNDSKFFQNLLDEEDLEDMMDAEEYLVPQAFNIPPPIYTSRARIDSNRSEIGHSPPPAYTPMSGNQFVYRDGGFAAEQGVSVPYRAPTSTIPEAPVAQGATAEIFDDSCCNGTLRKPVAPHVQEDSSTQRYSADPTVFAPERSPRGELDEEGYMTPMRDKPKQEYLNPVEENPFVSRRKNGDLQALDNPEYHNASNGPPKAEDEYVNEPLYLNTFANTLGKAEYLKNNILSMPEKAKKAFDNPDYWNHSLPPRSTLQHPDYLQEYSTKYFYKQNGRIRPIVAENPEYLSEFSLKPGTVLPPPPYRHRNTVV

colony formation in soft agar, T47D wild type cells treated with neuregulin (FIG. 13): 11 fold
colony formation in soft agar, ribozyme transfected T47D cells (T47D/Rz, ErbB-4 down-regulated): 2.5 fold
Substance: NRG1-α (from UniProt Q02297 177-241) (ligand)
